According to publication PMC7904728, “ITSN1 regulates SAM68 solubility through SH3 domain interactions with SAM68 proline-rich motifs”:

Target: ITSN1 SH3D-His (UniProt Q15811-2 1063-1150)
Experiment: NMR; 300 uM SH3D, 1:1.2 molar ratio; shift perturbations in eight residues; EMSA: 20 mM Tris-HCl pH 7.4, 50 mM KCl, 1 mM Mg, room temperature, 5 min, 0.7% agarose 0.5x TBE; NMR: 298 K, protein dialyzed in 12 mM potassium
Conditions: protein: recombinant; tags: His (pET22b); single strand

Chain of ITSN1 SH3D-His (Q15811 1063-1150): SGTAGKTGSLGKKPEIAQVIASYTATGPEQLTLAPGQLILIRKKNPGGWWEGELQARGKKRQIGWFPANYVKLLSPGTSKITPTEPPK

Binder	binding result
CACACACACACA (ssDNA) [CA6]	binds
TTTTTTTTTTTT (ssDNA) [T12]	binds
